Reference: patent publication US20230027238A1 (SPECTRUM PHARMACEUTICALS, published 2023)
Each block holds one molecule with its values, some of them ahead of it.

Experiments:
[1] = biological target: GLP-1R on CHO cells (CHO/GLP-1R); test: cell-based or functional assay
[2] = biological target: T1, Chinese hamster ovary (CHO) cell-derived soluble recombinant human G-CSF receptor (human, UniProt Q99062 25-627); test: SPR (BIAcore 3000), receptor amine-coupled to the chip, analyte 6.25-100 nmol/L, 25 °C, 1:1 Langmuir fit
T1 construct: extracellular domain; Immobilised by amine coupling on the sensor chip; also called soluble human G-CSF receptor; R&D Systems 381-050/CF
T1 sequence (looked up): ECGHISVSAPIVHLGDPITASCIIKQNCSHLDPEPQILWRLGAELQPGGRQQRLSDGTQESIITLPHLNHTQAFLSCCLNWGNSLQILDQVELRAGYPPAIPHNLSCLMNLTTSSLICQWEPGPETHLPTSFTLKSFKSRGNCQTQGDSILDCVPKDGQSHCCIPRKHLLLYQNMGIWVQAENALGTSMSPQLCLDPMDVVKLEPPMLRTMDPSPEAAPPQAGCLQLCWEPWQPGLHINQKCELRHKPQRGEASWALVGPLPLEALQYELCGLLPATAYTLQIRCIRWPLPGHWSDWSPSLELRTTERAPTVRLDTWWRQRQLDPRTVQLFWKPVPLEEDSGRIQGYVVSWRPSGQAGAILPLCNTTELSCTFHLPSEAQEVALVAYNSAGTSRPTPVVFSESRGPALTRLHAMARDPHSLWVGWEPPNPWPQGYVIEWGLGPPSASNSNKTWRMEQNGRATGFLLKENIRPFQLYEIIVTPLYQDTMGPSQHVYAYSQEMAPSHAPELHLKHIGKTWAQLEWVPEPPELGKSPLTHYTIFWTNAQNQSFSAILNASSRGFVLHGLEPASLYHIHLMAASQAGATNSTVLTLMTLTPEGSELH
Excerpt: Surface plasmon resonance technology and the BIAcore 3000 biosensor (GE healthcare) were employed to measure in vitro binding affinity to the G-CSF receptor. Amine-coupling chemistry was used to immobilize the G-CSF receptor on CMS biosensor chip. […] The CMS sensor chip surface was activated by injecting a 1:1 mixture of 0.1 mol/L N-hydroxysuccinimide (GE healthcare) and 0.1 mol/L 3-(N,N-dimethylamino)propyl-N-ethylcarbodiamide (GE Healthcare). […] The chip surface was then blocked with ethanolamine/HCl (GE Healthcare), pH 8.5, and washed with a regeneration solution (50 mmol/L NaCl; 5 mmol/L NaOH). […] Binding affinity was calculated using the 1:1 Langmuir fitting model for each test material.

[3] = biological target: T2, Fc fragment of eflapegrastim (human, UniProt P01861 107-325 = IgG part, aglycosylated (made in recombinant E. coli cells)); test: ELISA with GST-FcγRIIB, detection with anti-GST antibody
T2 construct: tested alone, without PEG and G-CSF; also called aglycosylated IgG4-Fc fragment; immunoglobulin Fc fragment
Protocol: For C1q, FcγRIIB, FcγRIIIA, and FcRn binding assays, serial dilutions of the test materials were added to 96-well microplates coated with C1q, or GST fusion proteins of FcγRIIB or FcγRIIIA, or FcRn αβ2. After incubation and washing, HRP-conjugated anti-C1q antibody was added for C1q binding assay, and rabbit-anti-GST antibody and HRP-conjugated anti-rabbit IgG antibody were sequentially added for FcγRIIB, FcγRIIIA, and FcRn binding assays. The absorbance was measured at 450 nm as described above for FcγRI binding assay.

T2 sequence (P01861 other isoform, or with tags, fused parts or gaps limits assumed): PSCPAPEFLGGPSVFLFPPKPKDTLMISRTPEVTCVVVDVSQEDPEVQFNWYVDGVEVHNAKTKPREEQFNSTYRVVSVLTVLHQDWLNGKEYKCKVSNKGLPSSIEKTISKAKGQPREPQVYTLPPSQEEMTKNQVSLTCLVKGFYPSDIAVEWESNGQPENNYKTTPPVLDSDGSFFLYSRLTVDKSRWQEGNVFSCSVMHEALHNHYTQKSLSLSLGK

% vs. Experimental group, CHO/GLP-1R bioassay [1]: 16.1% | EC50 (ng/ml), in vitro activity-CHO/GLP-1R bioassay [1]: 59000 ng/mL
Molecule: CA Exendin (lysine)-PEG-(lysine) Fc (Fc fusion)

Kd [2]: 2.9 nM
B1: pegfilgrastim (ligand, human, UniProt P09919-2 31-204, looked up)
chain: TPLGPASSLPQSFLLKCLEQVRKIQGDGAALQEKLCATYKLCHPEELVLLGHSLGIPWAPLSSCPSQALQLAGCLSQLHSGLFLYQGLLQALEGISPELGPTLDTLQLDVADFATTIWQQMEELGMAPALQPTQGAMPAFASAFQRRAGGVLVASHLQSFLEVSYRVLRHLAQP
modifications: N-terminal methionine residue pegylated with a 20 kDa polyethylene glycol
notes: Commercial product; also called Neulasta

binding result [3]: no binding
B2: GST fusion protein of FcγRIIB (receptor, UniProt P31994 43-217, looked up)
chain: TPAAPPKAVLKLEPQWINVLQEDSVTLTCRGTHSPESDSIQWFHNGNLIPTHTQPSYRFKANNNDSGEYTCQTGQTSLSDPVHLTVLSEWLVLQTPHLEFQEGETIVLRCHSWKDKPLVKVTFFQNGKSKKFSRSDPNFSIPQANHSHSGDYHCTGNIGYTLYSSKPVTITVQAP
notes: Order of receptor and GST unknown; not shown: GST
